Reference: a protein production outcome set (Wang et al. 2014)

Assay: label from the status in PepcDB records

## MGGSNMKLDFSVAVHSILYLDAHRDSKVASRELAQSLHLNPVMIRNILSVLHKHGYLTGTVGKNGGYQLDLALADMNLGDLYDLTIPPTISYARFITGPSKTDEQADQSPIAANISETLTDLFTVADRQYRAYYHQFTMADLQADLNHHGTFLQHEQDSES
  protein production: not failed

## MMGGKGGFYRHLAVEGNFGGTTQSLAVCSTIGANSVKMPTSFLYTPHRQAEFMALLQISEPGMSASPHRHRLAAGIDLGTTNSLVATVRSGSAACLPDAEGRVTLPSVVRYLENGGIEVGKTALSAQKTDPLNTVSSAKRLIGRTLADLHQNTHYLPYRFGDNQRVIELHTRQGVKTPVEVSAEILKTLKSRAEETLGGDLVGVVITVPAYFDDAQRQATKDAARLAGLNVLRLLNEPTAAAIAYGLDNASEGTFVVYDLGGGTFDVSVLQLTKGLFEVKATGGNSALGGDDFDHRLFCRLLEQNGLSQLNEQDSQLLLSLVRAAKEQLTTQTEARIQATLSDGMAIDTSISRAEFHNLTQHLVMKTLEPVTQALKDAGVGKNEVKGVIMVGGSTRMLHVQQAVATFFGQTPLNNLNPDEVVALGAAIQANVLAGNKTDGEWLLLDVTPLSLGLETYGGLAEKIIPRNSTIPTARAQDFTTFKDGQTAMTIHVVQGERELVSDCRSLAKFTLRGIPPMAAGAARIRVTFQIDADGLLSVSAQEQSTGVQAQIEVKPSYGLDDGAITRMLKDSMDNAAEDMAARARAEAVVEAESLTDAVNAALELDSDLLDAKELQQIRQGIADLQGRLKDGKAEDIRSAVAKLSRSTDNFAAKRMNRNIQRALTGQSVDNI
  protein production: failed

## NSTWSGESKTLVLSNLSYSATEETLQEVFEKATFIKVPQNQNGKSKGYAFIEFASFEDAKEALNSCNKREIEGRAIRLELQGPRGSPN
  protein production: not failed

## MSSHPPIRSYVLRQGYFSNAQRHAYESLLPRYGIPLTEEPVDLDSIFGRTAPGILEIGSGMGETTAEIARQHPEKDFIAIEVHAPGIGSLLGQIEKHRLTNLRIIPHDAKLVLQQMFTSESLDGIHIFFPDPWPKARHHKRRLIQPDFVSLLCDRLKPGGYLHIATDWEDYATHILHVLRSEERFVNTAVDYAARPAYRPLTKFEQRGMKLGHTIRDIIFTRTALEHHHHHH
  protein production: failed

## MSINTKENIDAIFEKLESFLKSKTVIGEPIKIGETTIIPFIDITFGLGTGGGGGKDEKGNDGTGSGAGAGAKISATAVLVIKGEQVELLPIKKAGGLEKLLDMVPELEHHHHHH
  protein production: not failed

## MGHHHHHHSHMSIPSSQYGFVFNKQSGLKLRNDLPVHKPKAGQLLLKVDAVGLCHSDLHVIYEGLDCGDNYVMGHEIAGTVAAVGDDVINYKVGDRVACVGPNGCGGCKYCRGAIDNVCKNAFGDWFGLGYDGGYQQYLLVTRPRNLSRIPDNVSADVAAASTDAVLTPYHAIKMAQVSPTSNILLIGAGGLGGNAIQVAKAFGAKVTVLDKKKEARDQAKKLGADAVYETLPESISPGSFSACFDFVSVQATFDVCQKYVEPKGVIMPVGLGAPNLSFNLGDLALREIRILGSFWGTTNDLDDVLKLVSEGKVKPVVRSAKLKELPEYIEKLRNNAYEGRVVFNP
  protein production: not failed

## MPTPADDLVVIGKIVSVYGIRGEVKVYSFTDPLDNLLDYRRWTLRRDGEIRQAELVRGRLHGKVLAAKLKGLDDREEARTFTGYEICIPRSELPSLEEGEYYWHQLEGLKVIDQGRQLLGVIDHLLETGANDVMVVKPCAGSLDDRERLLPYTGQCVLSIDLAAGEMRVDWDADF
  protein production: not failed

## GSSGSSGDGTCTGAMPDGALDTAVCADEVGSEEDLYDDLHSSSHHYSHPGGGGEQLAINELISDGSVVCAEALWDHVTMDDQELGFKAGDVIEVMDATNREWWWGRVADGEGWFPASFVRLRVNQDEPADDDAPLAGNSGAEDGGAEAQSSKDQMRTNVINEILSTERDYIKHLRDICEGYVRQCRKRADMFSEEQLRTIFGNIEDIYRCQKAFVKALEQRFNRERPHLSELGACFLEHQADFQIYSEYCNNHPNACVELSRLTKLSKYVYFFEACRLLQKMIDISLDGFLLTPVQKICKYPLQLAELLKYTHPQHRDFKDVEAALHAMKNVAQLINERKRRLENIDKIAQWQSSIEDWEGEDLLVRSSELIYSGELTRVTQPQAKSQQRMFFLFDHQLIYCKKDLLRRDVLYYKGRLDMDGLEVVDLEDGKDRDLHVSIKNAFRLHRGATGDSHLLCTRKPEQKQRWLKAFAREREQVQLD
  protein production: not failed
